Measured values taken from patent US12404328.

Target: CD19 expressed on the surface of KILR Raji cells (UniProt P15391)
Assay: cell-based or functional assay

Sequence of CD19 expressed on the surface of KILR Raji cells (P15391 20-556 limits assumed): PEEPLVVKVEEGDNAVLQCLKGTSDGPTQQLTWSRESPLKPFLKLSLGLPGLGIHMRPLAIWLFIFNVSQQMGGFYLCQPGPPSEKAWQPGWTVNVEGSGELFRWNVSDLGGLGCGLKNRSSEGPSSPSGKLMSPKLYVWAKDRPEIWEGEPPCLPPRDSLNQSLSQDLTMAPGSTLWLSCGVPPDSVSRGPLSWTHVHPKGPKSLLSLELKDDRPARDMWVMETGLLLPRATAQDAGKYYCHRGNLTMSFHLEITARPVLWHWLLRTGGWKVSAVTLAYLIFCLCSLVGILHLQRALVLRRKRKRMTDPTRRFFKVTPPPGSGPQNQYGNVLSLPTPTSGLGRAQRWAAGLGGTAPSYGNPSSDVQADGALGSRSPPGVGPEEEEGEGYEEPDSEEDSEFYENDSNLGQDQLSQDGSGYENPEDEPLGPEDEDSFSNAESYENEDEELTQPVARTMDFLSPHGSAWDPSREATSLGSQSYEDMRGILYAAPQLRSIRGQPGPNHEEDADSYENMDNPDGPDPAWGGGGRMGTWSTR

Substance: blinatumomab (bispecific antibody)
- EC50 of T cell-redirected killing of KILR Raji cells, +HSA (15 mg/mL): 10.8 ng/mL
- EC50 of T cell-redirected killing of KILR Raji cells, -HSA: 2.85 ng/mL
- Fold change (EC50 +HSA / EC50 -HSA) of killing of KILR Raji cells: 3.8 fold
